The record followed here is patent US20250297255A1 (ARSENAL BIOSCIENCES, published 2025).

Test [1] addresses T1, SLC34A2 peptide fragment (peptide 1) (human, biotinylated (site not stated)).
T1 construct: ELISA antigen captured on NeutrAvidin plates; also called SLC34A2 peptide immunogen
T1 peptide: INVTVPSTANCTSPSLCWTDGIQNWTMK
The experiment in a line: ELISA, biotinylated antigen on NeutrAvidin plate, anti-human Fc-HRP. Background: In an ELISA, binding on a coated surface is turned into a signal by an enzyme label.

Test [2] deals with T2, ECL-mFc fusion protein (human SLC34A2 ECL2 fused to murine Fc) (human, biotinylated (site not stated)).
T2 construct: The range 234-362 is the ECL2 part counted on human SLC34A2; also called mECL2-Fc protein
T2 chain: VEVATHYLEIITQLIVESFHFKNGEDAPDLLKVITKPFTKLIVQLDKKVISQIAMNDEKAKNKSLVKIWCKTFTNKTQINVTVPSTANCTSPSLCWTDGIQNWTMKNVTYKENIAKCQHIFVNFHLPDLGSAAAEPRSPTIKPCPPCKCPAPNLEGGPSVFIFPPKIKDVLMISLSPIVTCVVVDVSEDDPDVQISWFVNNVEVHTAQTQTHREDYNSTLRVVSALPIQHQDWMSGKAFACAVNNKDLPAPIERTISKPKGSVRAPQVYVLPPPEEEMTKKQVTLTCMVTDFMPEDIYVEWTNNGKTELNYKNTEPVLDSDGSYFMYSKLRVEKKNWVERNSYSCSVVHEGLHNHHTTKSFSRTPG
The description is as above.

In test [3] the target is T3, Human Solute Carrier Family 34 Member 2 (SLC34A2) (human, UniProt O95436 1-690).
T3 construct: Endogenous on OVCAR-3 cells; engineered on 786-O cells in the CAR kinetics assay; also called NaPi2b; NPT2B
T3 sequence: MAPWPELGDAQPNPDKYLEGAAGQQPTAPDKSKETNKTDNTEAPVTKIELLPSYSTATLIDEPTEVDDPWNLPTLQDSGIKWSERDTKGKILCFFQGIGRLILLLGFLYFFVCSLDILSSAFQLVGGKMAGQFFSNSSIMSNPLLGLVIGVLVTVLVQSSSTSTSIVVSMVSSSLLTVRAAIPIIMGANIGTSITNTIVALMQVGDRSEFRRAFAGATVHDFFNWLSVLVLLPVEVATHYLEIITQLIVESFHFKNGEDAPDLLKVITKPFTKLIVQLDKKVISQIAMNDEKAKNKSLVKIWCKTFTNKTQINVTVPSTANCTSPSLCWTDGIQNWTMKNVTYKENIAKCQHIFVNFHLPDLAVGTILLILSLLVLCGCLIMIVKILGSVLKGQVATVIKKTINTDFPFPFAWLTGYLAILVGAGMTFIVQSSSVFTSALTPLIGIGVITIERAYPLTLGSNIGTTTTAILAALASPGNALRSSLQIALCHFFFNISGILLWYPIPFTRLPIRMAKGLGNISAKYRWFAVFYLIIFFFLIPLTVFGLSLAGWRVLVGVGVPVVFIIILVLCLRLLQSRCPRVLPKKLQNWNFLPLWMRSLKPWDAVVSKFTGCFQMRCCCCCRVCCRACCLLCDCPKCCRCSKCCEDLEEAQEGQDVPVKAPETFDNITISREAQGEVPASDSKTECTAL
The test can be described thus: flow cytometry on OVCAR-3 cells (endogenous human SLC34A2), hIgG1/kappa, 8 five-fold dilutions from 133 nM.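 Also: binding read as geometric mean fluorescence intensity, with non-transfected HEK293 cells serving as the negative control.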 In general terms: In flow cytometry, cells or beads pass a laser one at a time.

B1: SLC34A2 Ab 14 (antibody, human IgG1, kappa, V domains shown)
VH: QVQLQESGPGLVKPSETLSLTCTVSGGSVSSGSYYWSWIRQPPGKGLEWIGYIFYSGSTYYNPSLKSRVTISVDTSKNQFSLKLTSVTAADTAVYFCARWMTTVKGYFDYWGQGTLVTVSS
VL: EIVLTQSPDFQSVTPKESVTITCRASQSVGSGLHWYQQKPDQSPKLLIKYASQSFSGVPSRFSGSGSGTDFTLTINSLEAEDAATYYCLQSSSLPWTFGQGTKVEIKR
notes: recombinant hIgG1/kappa
For B1, in test [1], the binding result is “binds”. Moreover, the binding result in test [2] is “binds”. Moreover, in test [3], the EC50 worked out at 9 nM and the “Max Signal by flow cytometry” value is 288.

B2: SLC34A2 Ab 2 (antibody, human IgG1, kappa, V domains shown)
VH: QVQLQESGPGLVKPSETLSLTCTVSGGSVSSGSYYWSWIRQAPGKGLEWIGYIYYSGSNYYNPSLKSRVTISVDTSKNQFSLKLRAVTAADTAVYYCARWMTTIKGYFDYWGQGTLVTVSS
VL: EIVLTQSPDFQSVTPKEKVTITCRASQSVGSGLHWYQQKPDQSPKLLIKYASQSFSGVPSRFSGSGSGTDFTLTINSLETEDAATYFCQQSSSLPWTFGQGTKVEIKR
notes: recombinant hIgG1/kappa from TAP products in Expi293
As to B2, the binding result in test [1] is recorded as “binds”. In addition, the binding result in test [2] is reported as “binds”. In test [3], the midpoint of the response, the EC50, lay at 7 nM and the “Max Signal by flow cytometry” value is 330.

B3: SLC34A2 Ab 1 (antibody, human IgG1, kappa, V domains shown)
VH: QVQLQESGPGLVKPSETLSLTCTVSGGSVSSGNFYWSWIRQPPGKGLEWIGYIYYSGSTYYNPSLKSRVTISVDTSKNQFSLKLRSLTAADTAVYYCARWMTKVKGYFDYWGQGTLVTVSS
VL: EIVLTQSPDFQSVTPKEKVTITCRASQSVGSGLHWYQQKPDQSPKLLIKYASQSFSGVPSRFSGSGSGTDFTLTINSLEVEDAATFYCLQSSSLPWTFGQGTKVEIKR
notes: as for B2
For B3, the binding result in test [1] and in test [2] was “binds” in each case. In test [3], this molecule yielded an EC50 of 7 nM. In addition, the “Max Signal by flow cytometry” value in test [3] worked out at 353.

B4: SLC34A2 Ab 7 (antibody, human IgG1, kappa, V domains shown)
VH: QVQLQESGPELVKPSETLSITCTVSGGSISSRSYYWGWIRQPPGKGLEWIGSIYYGGSTYYNPSLKSRVTISADTSKNQFSLKLNSVTAADTAVFYCVRHPAGYSTRWSAFDIWGQGTMVTVSS
VL: EIVLTQSPSSLSASVGDRVTITCRASQSISSYLNWYQQKPGRAPELLIYAASSLQSGVPSRFSGSGSGTDFTLTISSLQPEDFATYYCQQSFSSLTFGQGTRLEIKR
notes: as for B2
Turning to B4, in test [1], the binding result is recorded as “binds”. In test [2], the binding result is reported as “binds”. In addition, in test [3], the EC50 was determined as 16 nM and the “Max Signal by flow cytometry” value came out at 278.

B5: SLC34A2 Ab 8 (antibody, human IgG1, kappa, V domains shown)
VH: QVQLQESGPGLVKPSETLSLTCTVSGGSISSRSYYWGWIRQPPGKGPEWIGSIYYSGSTFYNPSLKSRVTISEDTSKSQFSLKVTSVTAADTAVYYCARHPAGYSSSWSAFDIWGQGTMVTVSS
VL: EIVLTQSPSSLSASVGDRVTITCRASQSISSYLNWYQLKPGKAPKLLIYAASSLHSGVPSRFSGSGSGTDFTLTISSLQPADFATYYCQQAYISLTFGQGTRLEIKR
notes: as for B2
B5: in test [3], the concentration for a half-maximal effect (EC50) is 6 nM and the “Max Signal by flow cytometry” value was found to be 354.

B6: SLC34A2 Ab 13 (antibody, human IgG1, kappa, V domains shown)
VH: QVQLVESGGGLVQPGRSLRLSCIGSGFTFGEYAMSWVRQAPGKGLEWVGFIRTKPYGGTTEFAASVKGRFTMSRDDSKSIAYLEMNSLKTEDTAVYYCTLIPALRFLEWLPWGQGTLVTVSS
VL: EIVLTQSPSSLSASVGDRVTVTCRANQDINNYLAWYQQTPGKVPKLLIYAASTLQSGVPSRFSGSGSGTDFTLTISSLQPEDVATYYCQNYYSVPWTFGQGTKLEIKR
notes: as for B2
B6: the binding result in test [1] is “binds”. The binding result in test [2] was “binds”. Further, in test [3], the response was half-maximal at 41 nM (EC50) and the “Max Signal by flow cytometry” value came out at 233.

B7: SLC34A2 Ab 9 (antibody, human IgG1, kappa, V domains shown)
VH: QVQLVESGGGLVQPGRSLRLSCSGSGFTSGDYAVSWVRQAPGKGLEWVGFIRTKPYGETTEYAASVKGRFTISRDDSKSIAYLQMNSLKAEDTAVFYCTFIPVSRFLEWLPWGQGIPVTVSS
VL: DIQMTQSPSSLSAFVGDRVTITCRASQDIGNYLAWYQQTPEKVPKLLIYAASTLQSGVPSRFSGSGSGTDFTLTISSLQPEDVATYYCQNYYSVPWTFGQGTKVEIKR
notes: recombinant hIgG1/kappa
Turning to B7, in test [3], the EC50 is 37 nM and the “Max Signal by flow cytometry” value is 281.

B8: SLC34A2 Ab 15 (antibody, human IgG1, kappa, V domains shown)
VH: QVQLQESGPGLVKPSETLSLTCTVSGGSVSSASYYWSWIRQPPGKGLEYIGYIYYSGSTYYNPSLKSRVTISIDTSKNQFSLNLRSVTAADTAVYYCARYIVGRPGFNWFDPWGQGTLVTVSS
VL: DIQMTQSPSSLSASVGDRVTITCRASQSISSYLNWYQQKPGKAPKFLISPASSLQSGVPSRFSGSGSGTDFTLTISSLQPEDFATYYCQQSYSIPWTFGQGTKVEIKR
notes: recombinant hIgG1/kappa
Consider B8, for which, in test [3], a half-maximal response (EC50) required 8 nM and the “Max Signal by flow cytometry” value was 346.

B9: SLC34A2 Ab 5 (antibody, human IgG1, kappa, V domains shown)
VH: QVQLQESGPGLVKPSETLSLTCSVSGGSISSSSYYWGWIRQPPGKGLEWIGSIDYSGSTYYNPSLKSRVTISIDTSKNQFSLRLSSVTAAEKAVYYCARHGRGTIGYFDYWGQGTLVTVSS
VL: DIQMTQSPSSLSASVGDRVTITCRASQSISSYLNWYQQKPGKAPKLLIYAASSLLTGVPSRFTGSGSGTDFTLTISSLQPEDFGTYYCQQSYSPPLTFGGGTKVEIKR
notes: recombinant hIgG1/kappa
With B9, the binding result in test [1] was “no binding”. In test [3], the EC50 was 5 nM and the “Max Signal by flow cytometry” value was found to be 271.

B10: SLC34A2 Ab 16 (antibody, human IgG1, kappa, V domains shown)
VH: QVQLQESGPGLVKPSETLSLTCTVSGDSVSSVSYYWSWIRQPPGKGLEWIGYIWYSGSTYYNPSLKSRVTISIDTSKNQFSLKLRSVTAADTAVYYCARYIVGRPGFNWFDPWGQGTLVTVSS
VL: DIQMTQSPSSLSASVGDRVTITCRASQTISSYLNWYQQKPGKAPKLLISPASNLQSGVPSRFSGSGSGTDFTLTISSLQPEDFATYYCQQSYIIPWTFGQGTKVEIKR
notes: recombinant hIgG1/kappa
With B10, in test [3], the EC50 came to 6 nM and the “Max Signal by flow cytometry” value is 296.

B11: SLC34A2 Ab 10 (antibody, human IgG1, kappa, V domains shown)
VH: QVQLLESGGGLVQPGASLRLSCAASGFTFSTYAMTWVRQAPGKGLEWVSGINGGGDTTYYADSVKGRFTISRDNSKNTLYLQMNSLRAEDTAVYYCAVRGYTYGYFFDYWGQGTLVTVSS
VL: DIQMTQSPSSLSASVGDRVTITCRASQGISNYLAWYQQRPGKVPKLLIYAASTLRSGVPSRFSGSGSGTDFTLTISSLQPEDVATYYCQKYNSAPLTFGGGTKVEIKR
notes: recombinant hIgG1/kappa
With B11, in test [3], it took 20 nM to reach a half-maximal effect (EC50) and the “Max Signal by flow cytometry” value is 218.

B12: SLC34A2 Ab 6 (antibody, human IgG1, kappa, V domains shown)
VH: QVQLLESGGGLVQPGGSLRLSCAASGFTFSSSAMAWVRQAPGKGLEWVSAISSSGDNTYYADSVKGRFTISRDTSKNTLSLQMSSLRAEDTAIYYCAKQGTNWGLYFDYWGQGTLVTVSS
VL: DIQMTQSPSSLSASVGDRVTIACRASQVISNYLAWYQQKPGKVPKLLIYVASTLQSGVPSRFSGSGSGTDFTLTISSLQPEDVATYYCQNYNSAPWTFGQGTKLEIKR
notes: recombinant hIgG1/kappa
As to B12, the binding result in test [1] is “no binding”. In test [3], the response was half-maximal at 6 nM (EC50) and the “Max Signal by flow cytometry” value was found to be 211.

B13: SLC34A2 Ab 4 (antibody, human IgG1, kappa, V domains shown)
VH: QVQLLESGGGLVQPGGSLRLSCAASGFTFSSYAMNWVRQAPGKGLEWVSAISGGVGNTYYADSVKGRFTISRDNSKNTLYLQMNSLRAEDTAVYYCTKDGPLWGNYFDYWGRGTLVTVSS
VL: EIVLTQSPSSLSASVGDRVTITCRASQGISNYLAWYQQKPGKVPNLLIYTASTLQSGVPSRFSGSGSGTDFTLTISSLQPEDVATYYCQKYNSAPFTFGPGTKVDIKR
notes: as for B2
As to B13, the binding result in test [1] is recorded as “no binding”. In addition, the binding result in test [2] was “binds”. In test [3], the midpoint of the response, the EC50, lay at 5 nM and the “Max Signal by flow cytometry” value was 277.

B14: SLC34A2 Ab 11 (antibody, human IgG1, kappa, V domains shown)
VH: QVQLQESGPGLVKPSETLSLTCTVSGGSISSSSYYWGWIRQPPGKGLEWIGSLYYSGSTYYNPSLKSRVTISVDTSKNQFSLKLNSVTAADTAVYYCTRHPRGIAARWGNWFDPWGQGTLVTVSS
VL: EIVLTQSPSSLSASVGDRLTITCRASQTISSYLNWYQQKPGKAPKVLIYAASSLQSGVPSRFSGSGSGTDFTLTISSLQPEDFATYYCQQSFIIPYTFGQGTKLEIKR
notes: as for B2
For the molecule B14, in test [3], the response was half-maximal at 6 nM (EC50) and the “Max Signal by flow cytometry” value came to 224.

Usually EC50 stands for the concentration that produces a half-maximal response. A low value points to an effect from little substance.
